The numbers were not newly measured in article PMC6611644, which cites them from elsewhere.

“And” between values parts separate entries of the source, which are not always exact repeats. Equal values may be shown once.

The series has as its target GPIbα (Homo sapiens) (UniProt P07359). As to the kind of experiment: SPR. (In general: SPR reads the build-up and loss of mass on a sensor chip optically.)
UniProt P07359, sequence (P07359 17-306): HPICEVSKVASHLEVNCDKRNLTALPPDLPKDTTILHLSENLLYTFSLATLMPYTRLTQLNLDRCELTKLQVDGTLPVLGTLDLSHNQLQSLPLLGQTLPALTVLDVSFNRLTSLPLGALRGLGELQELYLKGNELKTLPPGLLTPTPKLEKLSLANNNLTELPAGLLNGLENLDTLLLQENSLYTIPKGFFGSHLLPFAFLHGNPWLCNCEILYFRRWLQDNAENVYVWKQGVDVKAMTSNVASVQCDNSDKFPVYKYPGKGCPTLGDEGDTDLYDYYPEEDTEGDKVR

Usually Kd stands for the equilibrium constant for the complex coming apart. With GspB BR (from UniProt Q939N5), the Kd is 23.8 nM.

Consider Hsa BR (from UniProt A8AWU7), for which the Kd was 5.05 nM and 30.5 nM.
